From patent US10428140B2, “Anti-EphA4 antibody” (EISAI R&D MANAGEMENT CO., LTD., priority 2015, dated 2019)
Substitutions are numbered along the chain they refer to.

T1: human EphA3 (Homo sapiens, UniProt P29320)
T1 construct: a protein of the extracellular region of each human Eph receptor fused with the SEAP protein and the His tag; made in house; host or cells: Expi293F cells (culture supernatant)
T1 sequence (P29320 21-541 limits assumed): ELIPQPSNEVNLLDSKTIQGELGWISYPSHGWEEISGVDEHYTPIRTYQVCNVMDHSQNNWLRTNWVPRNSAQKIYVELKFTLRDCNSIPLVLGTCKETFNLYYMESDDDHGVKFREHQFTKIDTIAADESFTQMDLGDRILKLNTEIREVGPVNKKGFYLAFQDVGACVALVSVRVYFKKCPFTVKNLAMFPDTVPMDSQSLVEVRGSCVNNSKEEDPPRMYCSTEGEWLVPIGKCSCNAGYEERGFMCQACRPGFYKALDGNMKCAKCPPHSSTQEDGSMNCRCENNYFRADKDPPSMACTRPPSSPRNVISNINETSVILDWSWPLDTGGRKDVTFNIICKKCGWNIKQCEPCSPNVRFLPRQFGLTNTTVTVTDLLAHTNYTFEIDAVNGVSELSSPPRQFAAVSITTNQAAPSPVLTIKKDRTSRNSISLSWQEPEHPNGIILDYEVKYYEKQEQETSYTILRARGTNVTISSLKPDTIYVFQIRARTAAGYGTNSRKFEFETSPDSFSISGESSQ

T2: human EphB2 (Homo sapiens, UniProt P29323)
T2 construct: a protein of the extracellular region of each human Eph receptor fused with the SEAP protein and the His tag; made in house; host or cells: Expi293F cells
T2 sequence (P29323 19-543 limits assumed): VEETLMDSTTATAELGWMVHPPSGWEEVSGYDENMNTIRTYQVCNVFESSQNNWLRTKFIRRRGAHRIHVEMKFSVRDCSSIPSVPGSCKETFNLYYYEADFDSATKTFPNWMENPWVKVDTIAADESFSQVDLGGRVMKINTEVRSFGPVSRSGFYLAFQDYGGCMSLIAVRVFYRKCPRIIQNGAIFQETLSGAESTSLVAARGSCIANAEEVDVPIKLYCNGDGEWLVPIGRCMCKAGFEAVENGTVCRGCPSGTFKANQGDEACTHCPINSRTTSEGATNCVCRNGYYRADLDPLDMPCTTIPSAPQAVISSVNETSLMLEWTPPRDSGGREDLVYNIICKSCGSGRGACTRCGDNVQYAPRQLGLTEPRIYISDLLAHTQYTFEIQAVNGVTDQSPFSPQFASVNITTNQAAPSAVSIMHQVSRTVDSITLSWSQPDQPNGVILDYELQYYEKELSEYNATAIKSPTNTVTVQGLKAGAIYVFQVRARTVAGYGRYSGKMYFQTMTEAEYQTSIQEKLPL

T3: human EphB3 (Homo sapiens, UniProt P54753)
T3 construct: a protein of the extracellular region of each human Eph receptor fused with the SEAP protein and the His tag; made in house; host or cells: Expi293F cells
T3 sequence (P54753 34-559 limits assumed): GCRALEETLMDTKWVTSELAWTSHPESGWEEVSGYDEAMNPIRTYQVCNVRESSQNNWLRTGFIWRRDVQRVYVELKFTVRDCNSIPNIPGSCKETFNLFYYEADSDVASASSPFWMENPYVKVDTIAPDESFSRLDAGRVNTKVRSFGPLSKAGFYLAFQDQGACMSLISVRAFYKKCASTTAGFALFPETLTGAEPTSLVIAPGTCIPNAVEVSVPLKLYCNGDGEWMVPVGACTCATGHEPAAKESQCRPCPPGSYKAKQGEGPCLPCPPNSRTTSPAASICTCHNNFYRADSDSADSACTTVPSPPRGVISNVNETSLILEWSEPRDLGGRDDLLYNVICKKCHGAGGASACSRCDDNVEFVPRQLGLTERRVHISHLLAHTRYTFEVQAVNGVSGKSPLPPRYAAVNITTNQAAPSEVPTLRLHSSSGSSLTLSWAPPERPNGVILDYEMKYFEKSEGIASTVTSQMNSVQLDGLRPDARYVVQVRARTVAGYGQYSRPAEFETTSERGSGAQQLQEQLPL

B1: 145 (antibody, V domains shown)
VH: QVQLVQSGSELKKPGASVKVSCKASGYTFTDYSMHWVRQAPGQGLKWMGWINTETGEPTYADDFKGRFVFSLDTSVSTAYLQISSLKAEDTAVYYCARIPLYYYGSRYWYFDVWGQGTTVTVSS
VL: DIQMTQSPSSLSASVGDRVTITCRASENIYRNLAWYQQKPGKAPKLLLYAATNLADGVPSRFSGSGSGTDYTLTISSLQSEDFATYYCQHFWGTPWTFGQGTKVEIK
modifications: synthetic humanized antibody heavy chain variable region sequence; synthetic humanized antibody light chain variable region sequence
B2: 158 (antibody, V domains shown)
VH: B1 VH with D62Q, D63G, K65T
VL: B1 VL with K45Q, S80P
modifications: synthetic humanized antibody heavy chain variable region sequence; synthetic humanized antibody light chain variable region sequence
B3: 159 (antibody, V domains shown)
VH: B1 VH
VL: B1 VL with K45Q, S80P
modifications: synthetic humanized antibody heavy chain variable region sequence; synthetic humanized antibody light chain variable region sequence
B4: 134 (antibody, V domains shown)
VH: B1 VH with D62Q, D63G, K65T
VL: EIVMTQSPATLSVSPGERATLSCRASENIYRNLAWYQQKPGQSPRLLIYAATNLADGIPARFSGSGSGTEYTLTISSLQSEDFAVYYCQHFWGTPWTFGQGTKVEIK
modifications: synthetic humanized antibody heavy chain variable region sequence; synthetic humanized antibody light chain variable region sequence
B5: 157 (antibody, V domains shown)
VH: B1 VH with K46E, D62Q, D63G, K65T
VL: B1 VL with K45Q, S80P
modifications: synthetic humanized antibody heavy chain variable region sequence; synthetic humanized antibody light chain variable region sequence
B6: 160 (antibody, V domains shown)
VH: B1 VH with V2I
VL: B1 VL with K45Q, S80P
modifications: synthetic humanized antibody heavy chain variable region sequence; synthetic humanized antibody light chain variable region sequence
B7: 132 (antibody, V domains shown)
VH: B1 VH with V2I, D62Q, D63G, K65T
VL: B4 VL
modifications: synthetic humanized antibody heavy chain variable region sequence; synthetic humanized antibody light chain variable region sequence
B8: 155 (antibody, V domains shown)
VH: B1 VH with V2I
VL: B1 VL
modifications: synthetic humanized antibody heavy chain variable region sequence; synthetic humanized antibody light chain variable region sequence
B9: 133 (antibody, V domains shown)
VH: B1 VH with K46E, D62Q, D63G, K65T
VL: B4 VL
modifications: synthetic humanized antibody heavy chain variable region sequence; synthetic humanized antibody light chain variable region sequence
B10: 144 (antibody, V domains shown)
VH: B1 VH with K46E
VL: B1 VL with K45Q, S80P
modifications: synthetic humanized antibody heavy chain variable region sequence; synthetic humanized antibody light chain variable region sequence

Target: SEAP-His (Homo sapiens, UniProt P05187)
Sequence (P05187 23-511 limits assumed): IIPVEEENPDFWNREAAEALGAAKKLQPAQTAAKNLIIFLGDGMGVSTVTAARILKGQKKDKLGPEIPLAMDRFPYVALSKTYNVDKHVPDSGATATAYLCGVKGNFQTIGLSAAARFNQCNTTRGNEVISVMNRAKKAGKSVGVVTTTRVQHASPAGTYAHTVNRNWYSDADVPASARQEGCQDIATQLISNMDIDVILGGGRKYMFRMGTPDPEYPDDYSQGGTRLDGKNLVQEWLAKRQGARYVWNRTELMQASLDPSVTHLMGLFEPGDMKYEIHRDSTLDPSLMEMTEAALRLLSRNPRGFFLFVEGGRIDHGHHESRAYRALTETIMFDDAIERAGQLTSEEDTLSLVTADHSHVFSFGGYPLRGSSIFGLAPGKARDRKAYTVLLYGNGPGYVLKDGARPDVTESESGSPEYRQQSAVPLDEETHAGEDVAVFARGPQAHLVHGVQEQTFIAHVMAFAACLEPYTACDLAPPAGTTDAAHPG
Assay: Selectivity ELISA of humanized antibodies for human Eph receptor
Format: binding
Conditions: coated protein 1 nM
In short: (§1)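 His-tagged SEAP fusions of each human Eph receptor extracellular region, from Expi293F supernatants, were captured at 1 nM on anti-His-coated wells. Humanized antibody was bound 1 h at room temperature, then detected with HRP […] IgG. TMB development was acid-stopped and read at 450 nm.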

SEAP-His: absorbance at 450 nm, percentage with respect to hEphA4-SEAP-His as 100% [%]	Molecule
6.4	B1
6.3	B2
5.3	B3
5.1	B4
6.1	B5
6.3	B6
4.9	B7
5.8	B8
4.7	B9
5.7	B10

Target: T1, human EphA3
Assay: as above
Format: binding
Conditions: coated protein 1 nM
In short: as §1

hEphA3-SEAP-: absorbance at 450 nm, percentage with respect to hEphA4-SEAP-His as 100% [%]	Molecule
6.6	B1
6.5	B2
5.4	B3
5.0	B4
6.4	B5
6.2	B6
4.8	B7
5.6	B8
5.0	B9
5.7	B10

Target: T2, human EphB2
Assay: as above
Format: binding
Conditions: coated protein 1 nM
In short: as §1

hEphB2-SEAP-: absorbance at 450 nm, percentage with respect to hEphA4-SEAP-His as 100% [%]	Molecule
6.7	B1
6.3	B2
5.4	B3
5.1	B4
6.2	B5
6.2	B6
4.7	B7
5.5	B8
4.6	B9
5.7	B10

Target: T3, human EphB3
Assay: as above
Format: binding
Conditions: coated protein 1 nM
In short: as §1

hEphB3-SEAP-: absorbance at 450 nm, percentage with respect to hEphA4-SEAP-His as 100% [%]	Molecule
6.7	B1
6.5	B2
5.5	B3
5.2	B4
6.4	B5
6.2	B6
4.7	B7
5.5	B8
4.7	B9
5.8	B10
